This note sets out measurements from PMC3494873 (EMBO Molecular Medicine, 2012).

To fix the notation:
B1: Recombinant Fc-his-tag-E-cadherin (extracellular portion) (Fc fusion, UniProt P12830 155-709, looked up)
chain: DWVIPPISCPENEKGPFPKNLVQIKSNKDKEGKVFYSITGQGADTPPVGVFIIERETGWLKVTEPLDRERIATYTLFSHAVSSNGNAVEDPMEILITVTDQNDNKPEFTQEVFKGSVMEGALPGTSVMEVTATDADDDVNTYNAAIAYTILSQDPELPDKNMFTINRNTGVISVVTTGLDRESFPTYTLVVQAADLQGEGLSTTATAVITVTDTNDNPPIFNPTTYKGQVPENEANVVITTLKVTDADAPNTPAWEAVYTILNDDGGQFVVTTNPVNNDGILKTAKGLDFEAKQQYILHVAVTNVVPFEVSLTTSTATVTVDVLDVNEAPIFVPPEKRVEVSEDFGVGQEITSYTAQEPDTFMEQKITYRIWRDTANWLEINPDTGAISTRAELDREDFEHVKNSTYTALIIATDNGSPVATGTGTLLLILSDVNDNAPIPEPRTIFFCERNPKPQVINIIDADLPPNTSPFTAELTHGASANWTIQYNDPTQESIILKPKMALEVGDYKINLKLMDNQNKDQVTTLEVSVCDCEGAAGVCRKAQPVEAGLQIPA

Like-named read-outs stand apart in the source and are kept apart here.

Holding throughout (test): SPR
On the technique in general: SPR reads the build-up and loss of mass on a sensor chip optically.

In test [1] the target is T1, Recombinant his-tag-α6β4 integrin (extracellular portions) (UniProt P23229-2 24-1011; P16144 28-710).
The target of test [2] is B1.
For test [3], the target named is T1, Recombinant his-tag-α6β4 integrin …. The source holds these as a separate data set.

The Kd is the free concentration of one partner at which half of the binding sites on the other are occupied at equilibrium, for simple one-to-one binding.

As for B1, the Kd in test [1] is 5.3 to 16.8 nM.

B2: Recombinant angiopoietin-like 6 (ligand, UniProt Q8NI99 21-470, looked up)
chain: RAGAPRCTYTFVLPPQKFTGAVCWSGPASTRATPEAANASELAALRMRVGRHEELLRELQRLAAADGAVAGEVRALRKESRGLSARLGQLRAQLQHEAGPGAGPGADLGAEPAAALALLGERVLNASAEAQRAAARFHQLDVKFRELAQLVTQQSSLIARLERLCPGGAGGQQQVLPPPPLVPVVPVRLVGSTSDTSRMLDPAPEPQRDQTQRQQEPMASPMPAGHPAVPTKPVGPWQDCAEARQAGHEQSGVYELRVGRHVVSVWCEQQLEGGGWTVIQRRQDGSVNFFTTWQHYKAGFGRPDGEYWLGLEPVYQLTSRGDHELLVLLEDWGGRGARAHYDGFSLEPESDHYRLRLGQYHGDAGDSLSWHNDKPFSTVDRDRDSYSGNCALYQRGGWWYHACAHSNLNGVWHHGGHYRSRYQDGVYWAEFRGGAYSLRKAAMLIRPLKL
On to B2, for which the Kd was 29 nM in test [2] and 2.03 nM in test [3].
